# In the nanobody polyreactivity screen of Harvey et al. (2022):
# Test: yeast display, Sf9 membrane polyspecificity reagent, FACS + sequencing; frameworks hold sequencing errors
# How it was run: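 Using colony PCR, genes from sorted yeast display clones were amplified, then sequenced on MiSeq at 2 × 250 and filtered by CDR length. The clones had been stained with 10% biotinylated, detergent-solubilized Sf9 membrane reagent for 1 hour at 4 °C and sorted by FACS into low and high (top ~1%) gates on anti-HA and streptavidin fluorescence. Polyreactivity labels come from the gate of origin.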
row,Sequence,polyreactivity (PSR sort gate)
1,QVQLVESGGGLVQAGGSLRLSCAASGRTFYRNAMGWYRQAPGKERELVAAISGSGVRTYYADSVKGRFTISRDNAKNTVYLQMNSLKPEDTAVYYCARSVTWFRGRFSPDYGSWGQGTQVTVSS,high polyreactivity
2,QVQLVESGGGLVQAGGSLRLSCAASGRTFYRNAMGWYRQAPGKERELVAAISRSGGRTYYADSVKGRFTISRDNAKNTVYLHMNSLKPEDTAVYYCNAQPTLAVADYDYWGQGTQVTVSS,high polyreactivity
3,QVQLVESGGGLVQAGGSLRLSCAASGRTFYRNAMGWYRQAPGKERELVAAISRSGGRTYYADSVKGRFTISRDNAKNTVYLQMNSLKPEDTAVYYCNAQPTLAVADYDYWGQGTQVTVSS,high polyreactivity
4,QVQLVESGGGLVQAGGSLRLSCAASGRTFYRNAMGWYRQAPGKERELVAAISWRGGSTFYADSVKGRFTISRDNAKNTVYLQMNSLKPEDTAVYYCNAGSNSFSRVEYWGQGTQVTVSS,low polyreactivity
5,QVQLVESGGGLVQAGGSLRLSCAASGRTFYRNAMGWYRQAPGKERELVAAITSGGSTYYADSVKGRFTISRDNAKNTVYLQINSLKPEDTAVYYCAKRKGWVPSRSWTPAFWGQGTQVTVSS,low polyreactivity
6,QVQLVESGGGLVQAGGSLRLSCAASGRTFYRYAMGWYRQAPGKERELVAAISTRGGTTYYADSVKGRFTISRDNAKNTVYLQMNSLKPEDTAVYYCAADSVYAEDDSWGQGTQVTVSS,low polyreactivity
7,QVQLVESGGGLVQAGGSLRLSCAASGRTFYRYAMGWYRQAPGKERELVAAITTGGGSTYYADSVKGRFTISRDNAKNTVYLQMNSLKPEDTAVYYCNVYSSYTRRTLGDYWGQGTQVTVSS,high polyreactivity
8,QVQLVESGGGLVQAGGSLRLSCAASGRTFYRYAMGWYRQAPGKERELVAAMSRSGTTYYADSVKGRFTISRDNAQNTVYFQMNSLKPEDTALYYCAAKPAARQRGGDYWGQGTQVTVSS,high polyreactivity
9,QVQLVESGGGLVQAGGSLRLSCAASGRTFYRYAMGWYRQAPGKERELVATITLRGGRTYYADSVKGRFTISRDTAKNTVYLQMNSLKPEDTAVYYCAKYHWRLSFSRYPYDYWGQGTQVTVSS,high polyreactivity
10,QVQLVESGGGLVQAGGSLRLSCAASGRTFYRYAMGWYRQAPGKERLVAAITWNGGSTYYADSVKGRFTISRDNAKNTVYLQMNSLNPEDTAVYYCAATFGGVSWRRPHRFDYWGQGTQVTVSS,high polyreactivity
11,QVQLVESGGGLVQAGGSLRLSCAASGRTFYRYSMGWYRQAPAKERELVAAISSSGGRTYYADSVKGRFTISRDNAKNTVYLQMNSLKPEDTAVYYCIKAYYYWYDWGQGTQVTVSS,high polyreactivity
12,QVQLVESGGGLVQAGGSLRLSCAASGRTFYRYTMGWYRQAPAKERELVAAISWSGGSTYYADSVKGRFTISRDNAKNTVYLQMNSLKPEDTAVNYCAKATYWLYVQWYTYGYWGQGTQVTVSS,high polyreactivity
13,QVQLVESGGGLVQAGGSLRLSCAASGRTFYRYTMGWYRQAPGKERELVAGISWRGGTTYYADSVKGRFTISRDNAKNTVYLQMNSLKPEDTAVYYCAAKAGYRYGSLAYYKYDYWGQGTQVTVSS,high polyreactivity
14,QVQLVESGGGLVQAGGSLRLSCAASGRTFYSNAMGWYRQAPGKERELVAAISSSGSSTSYADSVKGRFTMSRDNAKNTVYLQMNSLKPEDTAVYYCAVRTKRRANRDYWGQGTQVTVSS,high polyreactivity
15,QVQLVESGGGLVQAGGSLRLSCAASGRTFYSNSMGWYRQAPGKERELVATISWRGGSTYYADSVKGRFTISRDNAKNTVYFQMHSLKPEDTAVYYCAAGYYPYWGQGTQVTVSS,low polyreactivity
16,QVQLVESGGGLVQAGGSLRLSCAASGRTFYSNTMGWYRQAPGKEREFVAAIPSIVGSTYYADSVKGRFTISRDNAKNTVYLQMNSLKPEDTAVYYCATRYVVIEYDYWGQGTQVTVSS,low polyreactivity
17,QVQLVESGGGLVQAGGSLRLSCAASGRTFYSYAMGWYRQAPGKERELVAAISGRGGRTYYADSVKGRFTISRDNAKNTVYLQMNSLKPEDTAVYYCAKGGYAIRYYGFDYWGQGTQVTVSS,high polyreactivity
18,QVQLVESGGGLVQAGGSLRLSCAASGRTFYSYAMGWYRQAPGKERELVAAISKRGTSTYYADSVKGRFTISRDNAKNTVYLQMNSLKPEDTAVYYCAAAYRGREVEYNSWGQGTQVTVSS,high polyreactivity
19,QVQLVESGGGLVQAGGSLRLSCAASGRTFYSYAMGWYRQAPGKERELVAAITSGDSTNYADSVKGRFTISRDNAKNTVYLQMNSLKPEDTAVYYCAAEYSGWYWYQHYNYWGQGTQVTVSS,high polyreactivity
20,QVQLVESGGGLVQAGGSLRLSCAASGRTFYSYVMGWYRQAPGKEREVVAAIPRSGGSTNYADSVKGRFTISRDNAKNTVYFQMHSRKPEDTAVYYCASRAGRTLRTHYDYWGQGTQGTVSS,high polyreactivity
21,QVQLVESGGGLVQAGGSLRLSCAASGRTFYTNAMGWYRQAPGKERELVAAITGDGTSTYYADSVKGRFTISRDNAKNTVYLEMNSLKPEDTAVYYCNATLPDYWPYYYYQGGDDYWGQGTQVTVSS,low polyreactivity

row,Sequence,polyreactivity (PSR sort gate)
1,QVQLVESGGGLVQAGGSLRLSCAASGRTFYTNAMGWYRQAPGKERELVAGISWGDGNTYYADSVKGRFTISRDNAKNTVYLQMNSLKPEDTAVYYCAVTYIILWSYSHTEFDYWGQGNQVTVSS,low polyreactivity
2,QVQLVESGGGLVQAGGSLRLSCAASGRTFYTNAMGWYRQAPGKERELVAVISRGGTTYYADSVKGRFTISRDNEKNTVYIQMNSLKPEDTAFYYCAIQSPSGDSSSQMGSWGQGTQVTVSS,low polyreactivity
3,QVQLVESGGGLVQAGGSLRLSCAASGRTFYTNGMGWYRQAPGKEREFVAGITYRGGGTYYADSVKGRFTISRDNAKNTVYLQMNSLKPEDTAVYYCNTRWILGRRFYYWGQGTQVTVSS,high polyreactivity
4,QVQLVESGGGLVQAGGSLRLSCAASGRTFYTYAMGWNRQAPGKEREFVAAITGSGGSTYYADSVKWRFTISRDNAKNTVYLQMTSLKPDDRAVYYCNAGSPGDVWYYYWGQGTQVTVSS,low polyreactivity
5,QVQLVESGGGLVQAGGSLRLSCAASGRTFYTYAMGWYRQAPGKERELVAAISSDGSTYYADSVKGRFTISRDNAKNTVYLQMNSLKPEDTAVYYCAADYSPWYWGYTYYYWGQGTQVTVSS,high polyreactivity
6,QVQLVESGGGLVQAGGSLRLSCAASGRTFYVNAMGWYRQAPGKERELVAAINTIGGRTYYADSVKGRFTISRDNAKNTVYLQMNSLKTEDTAVYYCAARQVSRWGYDYWGQGTQVTVSS,high polyreactivity
7,QVQLVESGGGLVQAGGSLRLSCAASGRTFYVYAMGWYRQAPGKERELVAAISWGGGSTYYADSVKGRFTISRDNAKNTVYLQMNSLKPEDTAVYYFAAESWTSGTNVPVWYYGYSWGQGTQVTVSS,low polyreactivity
8,QVQLVESGGGLVQAGGSLRLSCAASGRTFYVYAMGWYRQAPGKERELVAAISWRGGSTYYADSVKGRFTISRDNAKNTVYLQMNSLKPEDTAVYYCATAGGDWYGVDYWGQGTQVTVSS,low polyreactivity
9,QVQLVESGGGLVQAGGSLRLSCAASGRTFYVYAMGWYRQAPGKERELVAAITASGGSTYYADSVKGRFTLSRDNAKNTVYLQMNSLKPEDTAVYYCAARVVTLVRGVGYNYWGQGTQVTVSS,high polyreactivity
10,QVQLVESGGGLVQAGGSLRLSCAASGRTFYVYAMGWYRQAPGKERELVAAITYTGGDTYYADSVKGRFTISRDNAKNTVYLQMNSLKPEDTAVYYCAADFGPYYRFDYWGQGTQVTVSS,low polyreactivity
11,QVQLVESGGGLVQAGGSLRLSCAASGRTFYVYAMGWYRQAPGKERELVATITSRGGRTYYADSVKGRFTISRDNAKNTVYLQMNSLKPEDTAVDYCNAAWWKVSYVRQKYFYWGQGTQVTVSS,high polyreactivity
12,QVQLVESGGGLVQAGGSLRLSCAASGRTFYVYAMGWYRQAPGKVSELVAAISASGGRTYYADSVKGGFTISRDNAKNTVYLQMNSLKPEDTAVYYCAAEGRRGGKDYDYWGQGTQVTVSS,high polyreactivity
13,QVQLVESGGGLVQAGGSLRLSCAASGRTFYVYTMGWYRQAPGKERELVAGISYSGGSTYYADSVKGRFTISRDNAKNTVYLQMNSLKPEDTAVYYCNRGLAARVGRGDYWGQGTQVTVSS,low polyreactivity
14,QVQLVESGGGLVQAGGSLRLSCAASGRTFYWNAMGWYRQAPGKERELVAAITRNGGSTYYADSVKGRFTISRDNAKNTVYLQMNSLKPEDTAVYYCAARKRYGAGYDYWGQGTQVTVSS,high polyreactivity
15,QVQLVESGGGLVQAGGSLRLSCAASGRTFYWYAMGWYRQAPGKERELVAAIRWSTGSTYYADSVKGRFTISRDNAKNTVYLQMNSLKPEDTAVYYCAATRPSWRYNYWGQGTQVTVSS,high polyreactivity
16,QVQLVESGGGLVQAGGSLRLSCAASGRTFYWYTMGWYRQATGKERELVAAISIGGITSYADSVKGRFTISRDNAKNTVYLQMNSLKPEDTAVYYCAAPLSYKNVKYDYWGQGTQVTVSS,low polyreactivity
17,QVQLVESGGGLVQAGGSLRLSCAASGRTFYYNAMGWYRQAPGKERELVAAISGRGGSTYYADSVKGRFTISRDNAKNTVYLQMNSLKPEDTAVYYCNAVRYKYTGRFGYWGQGTQVTVSS,high polyreactivity
18,QVQLVESGGGLVQAGGSLRLSCAASGRTFYYNAMGWYRQAPGKERELVAAISSGDSTYYADSVKGRFTISRDNAKNTVYLQMNSLKPEDTAVYYCNKYVAYDYWGQGTQVTVSS,low polyreactivity
19,QVQLVESGGGLVQAGGSLRLSCAASGRTFYYNAMGWYRQAPGKERELVAAISWSGGSTYYADSVKGRFTISRDNAKNTVYLQMNSLKPEDTAVYYCAAGAYSYRKYRSYDYWGQGTQVTVSS,high polyreactivity
20,QVQLVESGGGLVQAGGSLRLSCAASGRTFYYNAMGWYRQAPGKERELVAVITRGSTYYADSVKGRFSISRDNAKNTVYLQMKSLKPEDTAVYYCCKYRHYHRGYDYWGQGTQVTVSS,high polyreactivity
